Columns and labels:
[1] = target: purified DJ-1 V51C (N-terminal 6×His-tagged) (human) (UniProt Q99497); test: SEC
[2] = target: T1, purified DJ-1 WT (N-terminal 6×His-tagged) (human), Q99497; test: SEC; conditions: remark: other sources report otherwise
T1 chain: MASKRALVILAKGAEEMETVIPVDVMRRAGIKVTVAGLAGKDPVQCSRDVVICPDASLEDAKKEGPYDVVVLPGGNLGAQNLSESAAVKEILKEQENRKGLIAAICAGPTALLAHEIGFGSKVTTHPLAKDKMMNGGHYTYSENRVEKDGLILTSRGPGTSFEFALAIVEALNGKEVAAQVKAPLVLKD

In the case of “purified DJ-1 V51C (N-terminal 6×His-tagged) (from UniProt Q99497 1-189) (natural protein)”, the percent of protein that is dimer [1] is reported as 15%.

B1: purified DJ-1 WT (N-terminal 6×His-tagged), Q99497 1-189 (natural protein)
chain: T1 chain
Molecule B1 has a percent of protein that is dimer [2] of 33% and a stoichiometry N [2] of 2.
